Our source for the self-cleavage values is the RNAGym collection of RNA variant scans (doi:10.7554/elife.80360).

To fix the notation:
B1: HDV Ribozyme (parent)
chain: GGCCGGCAUGGUCCCAGCCUCCUCGCUGGCGCCGGCUGGGCAACAUUCCGAGGGGACCGUCCCCUCGGUAAUGGCGAAUGGGACCCA

Variants of B1 are the subject of this data set. Description: self-cleavage, relative activity (ratio to wild type); higher = more cleavage; co-transcriptional.
With GGCCGGCAUGGUCCCAGCCUCCUCGCUGGCGCCGGCUGGGCCACAUUCCGAGGGGACCGUCCCCUCGGUAAUGGCGAACGGGACCCA [A42C U79C], the self-cleavage came out at 0.124.
Regarding GGCCGGCAUGGUCCCAGCCUCCUCGCUGGCGCCGGCUGGGCCACAUUCCGAGGGGACCGUCCCCUCGGUAAUGGCGAAAGGGACCCA [A42C U79A], the self-cleavage was found to be 0.213.
For the variant GGCCGGCAUGGUCCCAGCCUCCUCGCUGGCGCCGGCUGGGCCACAUUCCGAGGGGACCGUCCCCUCGGUAAUGGCGAAUCGGACCCA [A42C G80C], the self-cleavage is 0.101.
Then GGCCGGCAUGGUCCCAGCCUCCUCGCUGGCGCCGGCUGGGCGACAUUGCGAGGGGACCGUCCCCUCGGUAAUGGCGAAUGGGACCCA [A42G C48G], with 0.791; and GGCCGGCAUGGUCCCAGCCUCCUCGCUGGCGCCGGCUGGGCGACAUUACGAGGGGACCGUCCCCUCGGUAAUGGCGAAUGGGACCCA [A42G C48A], with 0.7.
Then GGCCGGCAUGGUCCCAGCCUCCUCGCUGGCGCCGGCUGGGCCACAUUCCGAGGGGACCGUCCCCUCUGUAAUGGCGAAUGGGACCCA [A42C G67U], with 0.261; and GGCCGGCAUGGUCCCAGCCUCCUCGCUGGCGCCGGCUGGGCGACAUUCCGAGGGGACCGUCCCCUCGGUCAUGGCGAAUGGGACCCA [A42G A70C], with 0.798.
Then GGCCGGCAUGGUCCCAGCCUCCUCGCUGGCGCCGGCUGGGCGACAUUCCGAGGGGACCGUCCCCUCGGUGAUGGCGAAUGGGACCCA [A42G A70G], with 0.623; and GGCCGGCAUGGUCCCAGCCUCCUCGCUGGCGCCGGCUGGGCCACAUUCCGAGGGGACCGUCCCCUCGGUAAUCGCGAAUGGGACCCA [A42C G73C], with 0.119.
As for GGCCGGCAUGGUCCCAGCCUCCUCGCUGGCGCCGGCUGGGCGACAUUCCGAGGGGACCGUCCCCUCGGUAAUGGUGAAUGGGACCCA [A42G C75U], the self-cleavage was found to be 0.397.
On to GGCCGGCAUGGUCCCAGCCUCCUCGCUGGCGCCGGCUGGGCGACAUUCCGAGGGGACCGUCCCCUCGGUAAUGGCGCAUGGGACCCA [A42G A77C], for which the self-cleavage was found to be 0.0723.
As for GGCCGGCAUGGUCCCAGCCUCCUCGCUGGCGCCGGCUGGGCGACCUUCCGAGGGGACCGUCCCCUCGGUAAUGGCGAAUGGGACCCA [A42G A45C], the figure is 0.399; as for GGCCGGCAUGGUCCCAGCCUCCUCGCUGGCGCCGGCUGGGCGACAUUCCGAGGGGAACGUCCCCUCGGUAAUGGCGAAUGGGACCCA [A42G C57A], 0.527; as for GGCCGGCAUGGUCCCAGCCUCCUCGCUGGCGCCGGCUGGGCGACAUUCCGAGGGGACCGUCCCCUCGGUAAUGGCGACUGGGACCCA [A42G A78C], 0.107.
In the case of GGCCGGCAUGGUCCCAGCCUCCUCGCUGGCGCCGGCUGGGCGAAAUUCCGAGGGGACCGUCCCCUCGGUAAUGGCGAAUGGGACCCA [A42G C44A], the self-cleavage came out at 0.536.
With GGCCGGCAUGGUCCCAGCCUCCUCGCUGGCGCCGGCUGGGCGACAUUCCGAGGGGACCGUCCCCUCGGUAAUGGCGAAUGGGACCCG [A42G A87G], the self-cleavage was 0.602.
As to GGCCGGCAUGGUCCCAGCCUCCUCGCUGGCGCCGGCUGGGCGACAUUCCGACGGGACCGUCCCCUCGGUAAUGGCGAAUGGGACCCA [A42G G52C], the self-cleavage was determined as 0.733.
Take GGCCGGCAUGGUCCCAGCCUCCUCGCUGGCGCCGGCUGGGCGACAUUCCGAGGGGACCGUCCCCUCGGUAAUGGCGAAUGGGACGCA [A42G C85G]: the self-cleavage came to 0.522.
On to GGCCGGCAUGGUCCCAGCCUCCUCGCUGGCGCCGGCUGGGCGACAUUCCGAGGGGACCGUCCCCUGGGUAAUGGCGAAUGGGACCCA [A42G C66G], for which the self-cleavage was determined as 0.538.
As for GGCCGGCAUGGUCCCAGCCUCCUCGCUGGCGCCGGCUGGGCGACAUUCCGAGGGGACCGUCCCCUAGGUAAUGGCGAAUGGGACCCA [A42G C66A], the figure is 0.702; as for GGCCGGCAUGGUCCCAGCCUCCUCGCUGGCGCCGGCUGGGCGACAUUCCGAGGGGACCGUCCCCUCGGUAAUGGCGAAUGGGGCCCA [A42G A83G], 0.361; as for GGCCGGCAUGGUCCCAGCCUCCUCGCUGGCGCCGGCUGGGCGACAUUCCGAGGGGACCGUCCCCUCGGUAGUGGCGAAUGGGACCCA [A42G A71G], 0.554.
Consider GGCCGGCAUGGUCCCAGCCUCCUCGCUGGCGCCGGCUGGGCCACAUUCCGAGGGGACCGUCCCCUCGGUAAAGGCGAAUGGGACCCA [A42C U72A], for which the self-cleavage was determined as 0.266.
As for GGCCGGCAUGGUCCCAGCCUCCUCGCUGGCGCCGGCUGGGCGACAUUCCGAGGGGACCGUACCCUCGGUAAUGGCGAAUGGGACCCA [A42G C61A], the figure is 0.779.
For GGCCGGCAUGGUCCCAGCCUCCUCGCUGGCGCCGGCUGGGCGACAUUCCUAGGGGACCGUCCCCUCGGUAAUGGCGAAUGGGACCCA [A42G G50U], the self-cleavage turned out to be 0.542.
Turning to GGCCGGCAUGGUCCCAGCCUCCUCGCUGGCGCCGGCUGGGCGACAUUCCCAGGGGACCGUCCCCUCGGUAAUGGCGAAUGGGACCCA [A42G G50C], the self-cleavage worked out at 0.287.
For the variant GGCCGGCAUGGUCCCAGCCUCCUCGCUGGCGCCGGCUGGGCCACAUUCCGAGGGGACCGUCCCCUCGAUAAUGGCGAAUGGGACCCA [A42C G68A], the self-cleavage is 0.253.
Then GGCCGGCAUGGUCCCAGCCUCCUCGCUGGCGCCGGCUGGGCCACAUUCCGAGGGGACCGUCCCCUCGUUAAUGGCGAAUGGGACCCA [A42C G68U], with 0.128; and GGCCGGCAUGGUCCCAGCCUCCUCGCUGGCGCCGGCUGGGCCACAUUCCGAGGGGACCGUCCCCCCGGUAAUGGCGAAUGGGACCCA [A42C U65C], with 0.268.
On to GGCCGGCAUGGUCCCAGCCUCCUCGCUGGCGCCGGCUGGGCCACAUUCCGAGGGGACCGUCCCCUCGGUAAUGCCGAAUGGGACCCA [A42C G74C], for which the self-cleavage came out at 0.166.
As for GGCCGGCAUGGUCCCAGCCUCCUCGCUGGCGCCGGCUGGGCCACAUGCCGAGGGGACCGUCCCCUCGGUAAUGGCGAAUGGGACCCA [A42C U47G], the figure is 0.0594; as for GGCCGGCAUGGUCCCAGCCUCCUCGCUGGCGCCGGCUGGGCCACAUCCCGAGGGGACCGUCCCCUCGGUAAUGGCGAAUGGGACCCA [A42C U47C], 0.0791.
